This is an account of results in publication PMC6444592, “Citrullination of HP1γ chromodomain affects association with chromatin” (Epigenetics & Chromatin, 2019).

Assay [1] concerns the target T1, GST-HP1γR38/9K (full-length mouse HP1γ with R38 and R39 mutated to lysine) (mouse, UniProt P23198 1-183, R38/9K | R38/9K).
T1 construct: heterochromatin protein 1 gamma (HP1γ), mouse, full length, R38K and R39K (retains the positive charge); source: E. coli, expressed as GST fusion protein (pGEX-2T), purified
The assay can be described thus: pull-down; H3K9me3 or unmethylated H3(1–16) peptides linked to Dynabeads MyOne streptavidin T1; eluted GST-HP1 in HBS-EP (300 mM NaCl, 10 mM HEPES KOH pH 7.4, 5 mM EDTA, 0.2% NP-40); SDS-PAGE, Coomassie-blue staining. Conditions: both partners purified.

The target of assay [2] is T2, GST-HP1γR38/9A (full-length mouse HP1γ with alanine substitutions at amino acids 38 and 39) (mouse, UniProt P23198 1-183, R38/9A | R38/9A).
T2 construct: heterochromatin protein 1 gamma (HP1γ), mouse, full length, R38A and R39A (designed to mimic citrullination); also called double alanine mutant; source: E. coli, expressed as GST fusion protein (pGEX-2T), purified
Described as above. Conditions: both partners purified.

T1 sequence (P23198 other isoform, or with tags, fused parts or gaps R38/9K | R38/9K | R38/9K | R38/9K): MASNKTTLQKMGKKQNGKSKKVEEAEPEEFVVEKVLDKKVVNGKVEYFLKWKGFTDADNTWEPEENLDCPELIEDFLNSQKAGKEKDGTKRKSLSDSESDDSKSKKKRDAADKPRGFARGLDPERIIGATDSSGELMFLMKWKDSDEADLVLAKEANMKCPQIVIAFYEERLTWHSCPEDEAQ
T2 sequence (P23198 other isoform, or with tags, fused parts or gaps R38/9A | R38/9A | R38/9A | R38/9A): as the sequence (P23198 other isoform, or with tags, fused parts or gaps R38/9K | R38/9K | R38/9K | R38/9K) above, with K38A, K39A counted along it

B1: H3K9me3(1–16) peptide (peptide)
peptide: ARTKQTARKSTGGKAP
modifications: trimethyl-lysine at K9 (K(me3)); biotin at the C-terminus
notes: histone H3, residues 1-16; also called methylated H3K9me3(1–16) peptides; H3K9me3 peptides
B1: the binding result in assay [1] and in assay [2] was “binds” throughout.
